From patent US20110250130A1 (AbbVie / Abbott, published 2011) come the findings set out here.

For test [1], the target named is T1, Recombinant Human TNF-α/TNFSF1A (human, UniProt P01375 77-233). Nature of the test: cell-based or functional assay.
Test [2] addresses T1, Recombinant Human TNF-α/TNFSF1A. In words: SPR (Biacore), antibody captured, TNF-α in solution. The procedure:
The BIACORE assay (Biacore, Inc. Piscataway, N.J.) determines the affinity of antibodies with kinetic measurements of on-rate and off-rate constants. Binding of antibodies to a target antigen (for example, a purified recombinant target antigen) is determined by surface plasmon resonance-based measurements with a Biacore® 1000 or 3000 instrument (Biacore® AB, Uppsala, Sweden) using running HBS-EP (10 mM HEPES [pH 7.4], 150 mM NaCl, 3 mM EDTA, and 0.005% surfactant P20) at 25° C. All chemicals are obtained from Biacore® AB (Uppsala, Sweden) or otherwise from a different source as described in the text. For example, approximately 5000 RU of goat anti-mouse IgG, (Fcγ), fragment specific polyclonal antibody (Pierce Biotechnology Inc, Rockford, Ill., US) diluted in 10 mM sodium acetate (pH 4.5) is directly immobilized across a CM5 research grade biosensor chip using a standard amine coupling kit according to manufacturer's instructions and procedures at 25 μg/ml. Unreacted moieties on the biosensor surface are blocked with ethanolamine. Modified carboxymethyl dextran surface in flowcell 2 and 4 is used as a reaction surface. Unmodified carboxymethyl dextran without goat anti-mouse IgG in flow cell 1 and 3 is used as the reference surface. For kinetic analysis, rate equations derived from the 1:1 Langmuir binding model are fitted simultaneously to association and dissociation phases of all eight injections (using global fit analysis) with the use of Biaevaluation 4.0.1 software. Purified antibodies are diluted in HEPES-buffered saline for capture across goat anti-mouse IgG specific reaction surfaces. Antibodies to be captured as a ligand (25 μg/ml) are injected over reaction matrices at a flow rate of 5 μl/minute. The association and dissociation rate constants, kₒₙ (M⁻¹s⁻¹) and koff (s⁻¹), are determined under a continuous flow rate of 25 μl/minute. Rate constants are derived by making kinetic binding measurements at different antigen concentrations ranging from 10-200 nM. The equilibrium dissociation constant (M) of the reaction between antibodies and the target antigen is then calculated from the kinetic rate constants by the following formula: KD=koff/kₒₙ. Binding is recorded as a function of time and kinetic rate constants are calculated. In this assay, on-rates as fast as 10⁶ M⁻¹s⁻¹ and off-rates as slow as 10⁻⁶ s⁻¹ can be measured.
(In general: Surface plasmon resonance follows binding to a sensor surface in real time, without labels.)

Residue numbers refer to the chain shown, from its start.

T1 sequence (P01375 77-233 limits assumed): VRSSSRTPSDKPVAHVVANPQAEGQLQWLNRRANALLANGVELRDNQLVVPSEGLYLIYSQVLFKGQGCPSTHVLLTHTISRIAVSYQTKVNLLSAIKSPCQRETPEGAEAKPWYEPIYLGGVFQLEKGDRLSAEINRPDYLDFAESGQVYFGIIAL

B1: AB259 (antibody, V domains shown)
VH: EVQLVESGGGLVQPGGSLRLSCAVSGFTLSDYGVNWVRQAPGKGLEWLGMIWGDGSTDYDSTLKSRLTISKDNSKSTIYLQMNSLRAEDTAVYYCAREWHHGPVAYWGQGTLVTVSS
VL: EIVMTQSPATLSLSPGERATLSCKASQAVSSAVAWYQQKPGQSPRLLIYWASTRHTGVPARFSGSGSGTDFTLTISSLQPEDFAVYYCQQHYSTPFTFGQGTKLEIK
notes: also called hMAK195VH.2a / hMAK195VL.2a
What is called Kd is the equilibrium constant for the complex coming apart. For orientation: koff means the rate constant with which the complex falls apart. Usually kon stands for the second-order rate constant of association. For the molecule B1, the “TNF-α neutralization assay IC50 (nM), L929 cells” value in test [1] turned out to be 0.071 nM. For the same molecule, in test [2], the Kd was 67.7 pM, the koff amounted to 0.000203 s⁻¹ and the kon stood at 3e+06 M⁻¹ s⁻¹.

B2: AB263 (antibody, V domains shown)
VH: B1 VH with V24A, L48V, G49S, L67F, S76N, I78L
VL: B1 VL
notes: also called hMAK195VH.2b / hMAK195VL.2a
B2: the “TNF-α neutralization assay IC50 (nM), L929 cells” value in test [1] worked out at 0.193 nM. Also, in test [2], the equilibrium dissociation constant (Kd) was 169 pM, the dissociation rate constant (koff) is 0.000273 s⁻¹ and the kon amounted to 1.61e+06 M⁻¹ s⁻¹.
